Experimental data as given in patent publication US6777176 (ARPIDA, dated 2004).

These binders were tested against T1, enzyme I (phosphoenolpyruvate-protein-phosphatase, EC 2.7.3.9) of the bacterial phosphotransferase system (E. coli, UniProt P08839 1-575) (assay: cell-based or functional assay).

Binder	inhibition IC50 [µM]	uncoupling P1/peptide/h [P1/peptide/h]
MRLLKTLCFGLCG [peptide 31]	4900	–
DGARLHYLF [peptide 22]	820	0.05
RHYLLF [peptide 26]	300	0.29
RHITLF [peptide 28]	160	0.31
RHRTLF [peptide 25]	530	0.23
SSLRGHRWVY [peptide 17]	–	0.07
RHITSL [peptide 27]	440	0.215

Molecular target: T1, enzyme I …
Assay: cell-based or functional assay
Remark: another data set of the same source

Binder	inhibition IC50 (µM) of in vitro phosphotransferase activity [µM]	uncoupling P1/peptide (x IC50/h)
GLRFGKTRVHYLVLG [peptide 14]	650	–
KKWHKRKK [peptide 8]	375	64.2
KKFALRK [peptide 2]	60	6.6
WHKR [peptide 13]	500	–
KKFHLRK [peptide 1]	25	3.2
SGRKSTRVHHWLLVL [peptide 15]	1380	–
KKFHIRKR [peptide 9]	1200	132
WHKR [peptide 12]	410	–
